Laboratory results published in patent publication US20150267232A1, “IN VIVO AND IN VITRO CARBENE INSERTION AND NITRENE TRANSFER REACTIONS CATALYZED BY HEME ENZYMES” (California Institute of Technology, priority 2012, published 2015).

Legend:
[1] = N—H insertion, aniline with ethyl 2-diazopropanoate; type: biochemical; settings: 10 μM catalyst, 20 mM aniline, 10 mM Na2S2O4, 10 mM ethyl 2-diazopropanoate
Experimental: The reactions shown in FIG. 37A were carried out with protein (20 μM), ethyl diazo acetate (8.5 mM), aniline (20 mM) and Na2S2O4 (10 mM) in phosphate buffer (pH 8) and allowed to shake at room temperature for 12 h. Yields are reported in parenthesis and TTN are presented in italics. Yields were determined by GC calibrated for each product. An isolated yield of 65% for compound 4.3 was determined for the milligram scale reaction run as follows: 25 mM EDA, 25 mM aniline, 25 μM protein, and 25 mM Na2S2O4. The reaction producing compounds 4.5 and 4.10 were carried out with protein (20 μM), ethyl diazo acetate (10.0 mM), aniline (20 mM) and Na2S2O4 (10 mM).
While substituted diazo compounds can also be used for insertion, the yield from N—H insertion of ethyl 2-diazopropanoate into aniline is only 26% (product 4.5). To improve efficiency of this reaction, we examined the reaction of ethyl 2-diazopropanoate with a variety of axial mutants. In particular, the axial mutant WT-AxA provided the desired product in 83% yield, compared to 8% yield and 1.7% yield with axial mutant WT-AxS and WT-BM3 heme domain, respectively (FIG. 37B).
The reactions shown in FIG. 37B were carried out with 10 μM catalyst loading, 20 mM aniline, 10 mM Na2S2O4 and 10 mM ethyl 2-diazopropanoate as described above. For the final entry in FIG. 37B, whole cells expressing BM3-CIS-T438S at 2.5 μM were used. See, U.S. Provisional Application No. 61/711,640 for the procedure for catalysis with whole cells.

[2] = Intramolecular carbene C—H insertion, substrate 4.1a; type: biochemical; settings: for Yield %: 10 mM 4.1a, 10 uM P450, 10 mM Na2S2O4, product 4.2a
Experimental: Yield of product 4.22b was established after calibration with phenethyl alcohol as an internal standard. The reaction is not catalyzed by the WT-BM3 heme domain or hemin at 5% catalyst loading.
A representative procedure for P450-catalyzed C—H insertion is as follows: A vial containing WT-AxD (20 μL, 200 μM) was sealed with a teflon cap and the headspace of this vial was purged with argon for 5 min. Concurrently, a solution of sodium dithionite (11 mM in phosphate buffer pH=8) was degassed for a minimum of 5 min and 360 μL of this solution was transferred to the vial containing protein. The gas lines were disconnected from the vials. The substrate 4.1a or 4.1b was then added as a solution (20 μL, 200 mM). Final concentrations of all components were: 10 uM enzyme, 10 mM substrate, and 10 mM dithionite. […]
The mixture was extracted with 1 mL cyclohexane and analyzed by GC-MS or GC. GC-MS was performed on a Shimadzu TQ8030 GC-MS with ion count detector and J&W HP-5 column (30 m×0.32 mm, 0.25 μm film) using the following method: 90° C. (hold 2 min), 90-190° C. (20° C./min), and 190-230 (40° C./min)

B1: WT-BM3 heme: WT heme domain (amino acids 1-463 of SEQ ID NO: 1) (protein, listed as Bacillus megaterium)
chain: TIKEMPQPKTFGELKNLPLLNTDKPVQALMKIADELGEIFKFEAPGRVTRYLSSQRLIKEACDESRFDKNLSQALKFVRDFAGDGLFTSWTHEKNWKKAHNILLPSFSQQAMKGYHAMMVDIAVQLVQKWERLNADEHIEVPEDMTRLTLDTIGLCGFNYRFNSFYRDQPHPFITSMVRALDEAMNKLQRANPDDPAYDENKRQFQEDIKVMNDLVDKIIADRKASGEQSDDLLTHMLNGKDPETGEPLDDENIRYQIITFLIAGHETTSGLLSFALYFLVKNPHVLQKAAEEAARVLVDPVPSYKQVKQLKYVGMVLNEALRLWPTAPAFSLYAKEDTVLGGEYPLEKGDELMVLIPQLHRDKTIWGDDVEEFRPERFENPSAIPQHAFKPFGNGQRACIGQQFALHEATLVLGMMLKHFDFEDHTNYELDIKETLTLKPEGFVVKAKSKKIPLGGIPSPST
modifications: cytochrome P450NADPH-P-450 reductase precursor, cytochrome P450 (BM3), CYP102A1
In the case of B1, the “yield of product 4.5” value [1] is reported as 1.7%, the Yield % [2] is reported as 0% and the “lactone formation via C—H bond insertion” value ([2]; substrates 4.1a and 4.1b, 10 μM variant or hemin at 5% catalyst loading, 16 h) is reported as “not catalyzed”.

B2: WT-AxY: WT heme domain + C400Y (protein, listed as Bacillus megaterium)
chain: TIKEMPQPKTFGELKNLPLLNTDKPVQALMKIADELGEIFKFEAPGRVTRYLSSQRLIKEACDESRFDKNLSQALKFVRDFAGDGLFTSWTHEKNWKKAHNILLPSFSQQAMKGYHAMMVDIAVQLVQKWERLNADEHIEVPEDMTRLTLDTIGLCGFNYRFNSFYRDQPHPFITSMVRALDEAMNKLQRANPDDPAYDENKRQFQEDIKVMNDLVDKIIADRKASGEQSDDLLTHMLNGKDPETGEPLDDENIRYQIITFLIAGHETTSGLLSFALYFLVKNPHVLQKAAEEAARVLVDPVPSYKQVKQLKYVGMVLNEALRLWPTAPAFSLYAKEDTVLGGEYPLEKGDELMVLIPQLHRDKTIWGDDVEEFRPERFENPSAIPQHAFKPFGNGQRAYIGQQFALHEATLVLGMMLKHFDFEDHTNYELDIKETLTLKPEGFVVKAKSKKIPLGGIPSPST
modifications: cytochrome P450NADPH-P-450 reductase precursor, cytochrome P450 (BM3), CYP102A1
notes: WT heme domain + C400Y
For B2, the Yield % [2] was “trace”.

B3: WT-AxS: WT heme domain + C400S (protein, listed as Bacillus megaterium)
chain: TIKEMPQPKTFGELKNLPLLNTDKPVQALMKIADELGEIFKFEAPGRVTRYLSSQRLIKEACDESRFDKNLSQALKFVRDFAGDGLFTSWTHEKNWKKAHNILLPSFSQQAMKGYHAMMVDIAVQLVQKWERLNADEHIEVPEDMTRLTLDTIGLCGFNYRFNSFYRDQPHPFITSMVRALDEAMNKLQRANPDDPAYDENKRQFQEDIKVMNDLVDKIIADRKASGEQSDDLLTHMLNGKDPETGEPLDDENIRYQIITFLIAGHETTSGLLSFALYFLVKNPHVLQKAAEEAARVLVDPVPSYKQVKQLKYVGMVLNEALRLWPTAPAFSLYAKEDTVLGGEYPLEKGDELMVLIPQLHRDKTIWGDDVEEFRPERFENPSAIPQHAFKPFGNGQRASIGQQFALHEATLVLGMMLKHFDFEDHTNYELDIKETLTLKPEGFVVKAKSKKIPLGGIPSPST
modifications: cytochrome P450NADPH-P-450 reductase precursor, cytochrome P450 (BM3), CYP102A1
notes: WT heme domain + C400S
For B3, the “yield of product 4.5” value [1] was 8%.

B4: WT-AxA: WT heme domain + C400A (protein)
chain: TIKEMPQPKTFGELKNLPLLNTDKPVQALMKIADELGEIFKFEAPGRVTRYLSSQRLIKEACDESRFDKNLSQALKFVRDFAGDGLFTSWTHEKNWKKAHNILLPSFSQQAMKGYHAMMVDIAVQLVQKWERLNADEHIEVPEDMTRLTLDTIGLCGFNYRFNSFYRDQPHPFITSMVRALDEAMNKLQRANPDDPAYDENKRQFQEDIKVMNDLVDKIIADRKASGEQSDDLLTHMLNGKDPETGEPLDDENIRYQIITFLIAGHETTSGLLSFALYFLVKNPHVLQKAAEEAARVLVDPVPSYKQVKQLKYVGMVLNEALRLWPTAPAFSLYAKEDTVLGGEYPLEKGDELMVLIPQLHRDKTIWGDDVEEFRPERFENPSAIPQHAFKPFGNGQRAAIGQQFALHEATLVLGMMLKHFDFEDHTNYELDIKETLSLKPKGFVVKAKSKKIPLGGIPSPST
modifications: synthetic cytochrome P450-BM3 variant WT-AxA (heme)
notes: WT heme domain + C400A
In the case of B4, the “yield of product 4.5” value [1] is reported as 83% and the Yield % [2] is reported as “trace”.
